Measurements as given in article PMC10107152.
Substitutions are numbered along the chain they refer to. In names and notes the source's numbering stands.

B1: SPS (styrylpyrone synthase; WT-SPS) (Piper methysticum) (protein)
chain: MSKTVEDRAAQRAKGPATVLAIGTATPANVVYQTDYPDYYFRVTKSEHMTKLKNKFQRMCDRSTIKKRYMVLTEELLEKNLSLCTYMEPSLDARQDILVPEVPKLGKEAADEAIAEWGRPKSEITHLIFCTTCGVDMPGADYQLTKLLGLRSSVRRTMLYQQGCFGGGTVLRLAKDLAENNAGARVLVVCSEITTAVNFRGPSDTHLDLLVGLALFGDGAAAVIVGADPDPTLERPLFQIVSGAQTILPDSEGAINGHLREVGLTIRLLKDVPGLVSMNIEKCLMEAFAPMGIHDWNSIFWIAHPGGPTILDQVEAKLGLKEEKLKSTRAVLREYGNMSSACVLFILDEVRKRSMEEGKTTTGEGFDWGVLFGFGPGFTVETVVLHSMPIPKADEGR
B2: 2PS (2-pyrone synthase; WT-2PS) (Gerbera hybrid cultivar) (protein)
chain: MGSYSSDDVEVIREAGRAQGLATILAIGTATPPNCVAQADYADYYFRVTKSEHMVDLKEKFKRICEKTAIKKRYLALTEDYLQENPTMCEFMAPSLNARQDLVVTGVPMLGKEAAVKAIDEWGLPKSKITHLIFCTTAGVDMPGADYQLVKLLGLSPSVKRYMLYQQGCAAGGTVLRLAKDLAENNKGSRVLIVCSEITAILFHGPNENHLDSLVAQALFGDGAAALIVGSGPHLAVERPIFEIVSTDQTILPDTEKAMKLHLREGGLTFQLHRDVPLMVAKNIENAAEKALSPLGITDWNSVFWMVHPGGRAILDQVERKLNLKEDKLRASRHVLSEYGNLISACVLFIIDEVRKRSMAEGKSTTGEGLDCGVLFGFGPGMTVETVVLRSVRVTAAVANGN
B3: 2PS (2-pyrone synthase; WT-2PS) (Gerbera hybrid cultivar; I201V/I343S/L202T) (protein)
chain: B2 chain with I201V, L202T, I343S
B4: 2PS (2-pyrone synthase; WT-2PS) (Gerbera hybrid cultivar; I201V/I343S/L202T/L261G) (protein)
chain: B2 chain with I201V, L202T, L261G, I343S
B5: 2PS (2-pyrone synthase; WT-2PS) (Gerbera hybrid cultivar; I201V/I343S/L202T/L261V) (protein)
chain: B2 chain with I201V, L202T, L261V, I343S
B6: 2PS (2-pyrone synthase; WT-2PS) (Gerbera hybrid cultivar; I201V/I343S/L202T/L261A) (protein)
chain: B2 chain with I201V, L202T, L261A, I343S

Substrate: CC(C)(COP(=O)(O)OP(=O)(O)OC[C@H]1O[C@@H](n2cnc3c(N)ncnc32)[C@H](O)[C@@H]1OP(=O)(O)O)[C@@H](O)C(=O)NCCC(=O)NCCSC(=O)/C=C/c1ccccc1
Assay: purified protein
Conditions: varied cinnamoyl-CoA; malonyl-CoA as extender

| Protein | Km [µM] | kcat [s⁻¹] | kcat/Km [M⁻¹ s⁻¹] |
| --- | --- | --- | --- |
| B1 | 3.7 ± 0.5 | 0.00287 ± 0.0001 | 770 ± 30 |
| B2 | 1.6 ± 0.5 | 0.000533 ± 5e-05 | 340 ± 60 |
| B3 | 1.4 ± 0.3 | 0.000767 ± 3.33e-05 | 568 ± 116 |
| B4 | 7.1 ± 1.1 | 0.165 ± 0.01 | 23000 ± 4000 |
| B5 | 2.1 ± 0.5 | 0.00225 ± 0.000167 | 1070 ± 270 |
| B6 | 4.2 ± 0.8 | 0.0312 ± 0.00233 | 7400 ± 1500 |
